B1: L6.dP03H10 (antibody, V domains shown)
VH: QVQLVQSGAEVKKPGSSVKVSCKASGGTFSIYAITWVRQAPGQGLEWMGGIIPIIGTANYAQKFQGRVTITADKSTSTAYMELSSLRSEDTAVYYCARDFRYCSSTRCYFWFDPWGQGTLVTVSS
VL: DIQMTQSPSSLSASVGDRVTITCRASQNISSYLNWYQQEAGKAPKLLIYAASSLQSGVPSRFSGSGSGTDFTLTISSLQPEDFATYYCQQSYSTPRTFGQGTKVDIK
B2: L6.dP02E05 (antibody, V domains shown)
VH: QVQLVQSGSELKKPGASVKVSCKASGYTFATYALNWVRQAPGQGLEWMGWVNTNTGSPTYAQGFTGRFVFSFDTSVSTAYLQIRTLKAEDTAVYYCAVYYYDSGSPGWFDPWGQGTLVTVSS
VL: B1 VL with M4L, N28T, I29A, E39K, A40P, K45N, G68V, R96P
notes: human IgG1
B3: L6.dP04E05 (antibody, V domains shown)
VH: EVQLVESGGGLVQPGRSLRLSCAASGFTFDDYAMHWVRQAPGKGLEWVSGISWNSDNIGYADSVKGRFTVSRDNAKNSLYLQMNSLRAEDTALYYCTKDIHRKNDYYDILTGYYRVRYYYYAMDVWGQGTTVTVSS
VL: QSVLTQPPSASGSPGQSVTISCTGTSSDAGGYNYVSWYQQHPGKAPKLMIYEVIKRPSGVPDRFSGSKSGNTASLTVSGLQAEDEADYYCSSFAGTSVVFGGGTKLTVL
notes: human IgG1
B4: L6.dP04A03 (antibody, V domains shown)
VH: QVQLVQSGAEVKKPGSSVKVSCKASGGTFSSSAISWVRQAPGQGLEWMGGIIPILDITNYAQKFQGRVTITADKSTSTAFMELSSLRSEDTAVYYCALRNQWDLLVYWGQGTLVTVSS
VL: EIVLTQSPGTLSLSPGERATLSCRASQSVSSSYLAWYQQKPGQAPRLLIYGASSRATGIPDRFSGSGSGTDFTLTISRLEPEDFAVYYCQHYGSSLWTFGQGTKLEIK
B5: L6.P4A3.1 (antibody, V domains shown)
VH: B4 VH with T28I, T58S, R99T
VL: EIVLTQSPGTLSLSPGERATLSCRASQRVSSSYLAWYQQKPGQAPRLLIYGAESRATGIPDRFSGSGSGTDFTLTISRLEPEDFAVYYCQHYGSSLWTFGQGTKLEIK

The source of these data is patent publication US20230357364A1 (INTERNATIONAL AIDS VACCINE INITIATIVE, published 2023).

Changes are numbered by the printed parent chain.

The first test has as its target T1, SARS-CoV-2 spike D614G (pseudovirus) (SARS-CoV-2, UniProt P0DTC2 14-1273). The test is described as follows: cell-based or functional assay.
With B1, the “neutralization IC50” value was 1.9 ng/mL.

Turning to B2, the “neutralization IC50” value is 3.9 ng/mL.

For B3, the “neutralization IC50” value was 0.52 ng/mL.

Consider B4, for which the “neutralization IC50” value is 24 ng/mL.

The target in another test is SARS-CoV-2 spike V367F (pseudovirus) (SARS-CoV-2, UniProt P0DTC2 14-1273). The experiment in a line: cell-based or functional assay.
B1: the “neutralization IC50” value was found to be 0.25 ng/mL.

Turning to B2, the “neutralization IC50” value was 0.04 ng/mL.

Consider B3, for which the “neutralization IC50” value came out at 0.07 ng/mL.

Another test concerns the target SARS-CoV-2 spike G476S (pseudovirus) (SARS-CoV-2, UniProt P0DTC2 14-1273). The experiment in a line: cell-based or functional assay.
As for B1, the “neutralization IC50” value came out at 0.08 ng/mL.

As to B3, the “neutralization IC50” value turned out to be 0.16 ng/mL.

With B4, the “neutralization IC50” value amounted to 84 ng/mL.

In the next test the target is SARS-CoV-2 spike V483A (pseudovirus) (SARS-CoV-2, UniProt P0DTC2 14-1273). The test is described as follows: cell-based or functional assay.
For B1, the “neutralization IC50” value was found to be 1.9 ng/mL.

Regarding B2, the “neutralization IC50” value was 3.9 ng/mL.

On to B3, for which the “neutralization IC50” value turned out to be 0.55 ng/mL.

In the case of B4, the “neutralization IC50” value is 160 ng/mL.

The next test concerns the target T1, SARS-CoV-2 spike D614G (pseudovirus). The test is described as follows: cell-based or functional assay. The source holds these as a separate data set.
On to B3, for which the “PSV in HeLa-ACE2 cells IC50” value was determined as 8 ng/mL.

On to B5, for which the “PSV in HeLa-ACE2 cells IC50” value stood at 13 ng/mL.
